Experimental data published in publication PMC9482650, “Quantitative fragmentomics allow affinity mapping of interactomes” (Nature Communications, 2022).
Each block holds one binder with its values, some of them ahead of it.

Experiments:
Experiment in all cases: holdup assay
Design in all cases: key: below the threshold = too weak to quantify, mostly under pKd 3.1 to 4
[1] = molecular target: T1, TX1BP3, O14907
T1 sequence (O14907 10-122, limits assumed, looked up): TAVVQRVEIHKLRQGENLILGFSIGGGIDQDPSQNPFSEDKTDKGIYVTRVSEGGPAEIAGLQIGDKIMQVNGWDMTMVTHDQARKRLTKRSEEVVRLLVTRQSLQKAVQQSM

[2] = molecular target: DLG4_2, P78352
DLG4_2, P78352, sequence (P78352 155-259): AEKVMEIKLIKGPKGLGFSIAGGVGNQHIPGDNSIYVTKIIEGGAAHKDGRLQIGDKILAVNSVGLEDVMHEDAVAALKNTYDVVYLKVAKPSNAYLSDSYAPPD

[3] = molecular target: T2, APBA2_1, Q99767
T2 sequence (Q99767 563-664, limits assumed, looked up): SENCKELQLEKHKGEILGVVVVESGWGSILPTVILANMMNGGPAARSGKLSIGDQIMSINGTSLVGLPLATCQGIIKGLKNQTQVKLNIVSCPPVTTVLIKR

[4] = molecular target: DLG2_3, Q15700
[5] = molecular target: T3, SNTG1, Q9NSN8
T3 sequence (Q9NSN8 52-150, limits assumed, looked up): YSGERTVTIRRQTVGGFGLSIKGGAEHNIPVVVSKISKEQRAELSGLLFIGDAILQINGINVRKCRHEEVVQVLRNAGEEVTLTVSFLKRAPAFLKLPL

[6] = molecular target: GRIP2_6, Q9C0E4
GRIP2_6, Q9C0E4, sequence (Q9C0E4 648-740): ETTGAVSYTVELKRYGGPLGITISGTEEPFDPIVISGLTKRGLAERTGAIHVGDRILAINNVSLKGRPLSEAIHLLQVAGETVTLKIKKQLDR

[7] = molecular target: MAST1, Q9Y2H9
MAST1, Q9Y2H9, sequence (Q9Y2H9 962-1065): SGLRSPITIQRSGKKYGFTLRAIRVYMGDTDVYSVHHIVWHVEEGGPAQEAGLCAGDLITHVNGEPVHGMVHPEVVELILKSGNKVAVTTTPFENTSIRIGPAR

[8] = molecular target: T4, LIN7A, O14910
T4 sequence (O14910 103-200, limits assumed, looked up): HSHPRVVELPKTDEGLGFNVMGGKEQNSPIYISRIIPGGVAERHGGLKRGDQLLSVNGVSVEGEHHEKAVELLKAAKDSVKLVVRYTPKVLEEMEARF

[9] = molecular target: T5, RAPGEF6, Q8TEU7
T5 sequence (Q8TEU7 525-625, limits assumed, looked up): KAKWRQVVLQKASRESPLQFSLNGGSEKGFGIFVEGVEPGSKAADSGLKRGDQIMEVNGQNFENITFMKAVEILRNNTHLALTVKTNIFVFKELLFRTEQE

[10] = molecular target: T6, DLG3_2, Q92796
T6 sequence (Q92796 221-321, limits assumed, looked up): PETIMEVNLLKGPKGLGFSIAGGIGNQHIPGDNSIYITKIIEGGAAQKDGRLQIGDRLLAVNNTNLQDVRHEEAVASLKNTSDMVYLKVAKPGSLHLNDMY

[11] = molecular target: DLG2_2, Q15700
[12] = molecular target: DLG4_1, P78352
DLG4_1, P78352, sequence (P78352 62-152): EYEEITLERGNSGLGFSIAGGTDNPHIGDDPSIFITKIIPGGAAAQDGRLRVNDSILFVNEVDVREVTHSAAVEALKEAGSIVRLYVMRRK

[13] = molecular target: T7, SYNJ2BP, P57105
T7 sequence (P57105 8-110, limits assumed, looked up): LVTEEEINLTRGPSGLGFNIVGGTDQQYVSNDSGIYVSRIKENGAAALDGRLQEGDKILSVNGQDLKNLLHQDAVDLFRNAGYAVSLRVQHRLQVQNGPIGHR

[14] = molecular target: GRIP2_3, Q9C0E4
GRIP2_3, Q9C0E4, sequence (Q9C0E4 238-339): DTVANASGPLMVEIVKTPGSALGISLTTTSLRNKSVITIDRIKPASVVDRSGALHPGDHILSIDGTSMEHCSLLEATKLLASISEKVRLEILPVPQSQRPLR

[15] = molecular target: MAGI2_3, Q86UL8
MAGI2_3, Q86UL8, sequence (Q86UL8 600-682): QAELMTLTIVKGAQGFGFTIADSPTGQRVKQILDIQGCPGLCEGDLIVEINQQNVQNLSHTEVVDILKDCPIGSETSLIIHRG

[16] = molecular target: SCRIB_1, Q14160
SCRIB_1, Q14160, sequence (Q14160 718-814): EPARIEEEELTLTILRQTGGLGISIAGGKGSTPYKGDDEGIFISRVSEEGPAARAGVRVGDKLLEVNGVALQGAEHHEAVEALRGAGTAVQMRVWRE

[17] = molecular target: IL16_1, Q14005
IL16_1, Q14005, sequence (Q14005 210-306): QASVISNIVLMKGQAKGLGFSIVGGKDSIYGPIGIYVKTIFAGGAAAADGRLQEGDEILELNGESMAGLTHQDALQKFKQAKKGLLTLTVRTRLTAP

[18] = molecular target: MAGI1_1, Q96QZ7
MAGI1_1, Q96QZ7, sequence (Q96QZ7 1-106): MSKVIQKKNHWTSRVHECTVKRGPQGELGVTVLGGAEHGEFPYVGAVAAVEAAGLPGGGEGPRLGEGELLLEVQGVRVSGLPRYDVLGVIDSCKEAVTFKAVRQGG

[19] = molecular target: PTPN3, P26045
PTPN3, P26045, sequence (P26045 505-587): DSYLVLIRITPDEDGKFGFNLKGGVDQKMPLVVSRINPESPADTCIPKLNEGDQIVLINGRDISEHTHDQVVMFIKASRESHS

[20] = molecular target: HTRA1, Q92743
HTRA1, Q92743, sequence (Q92743 360-477): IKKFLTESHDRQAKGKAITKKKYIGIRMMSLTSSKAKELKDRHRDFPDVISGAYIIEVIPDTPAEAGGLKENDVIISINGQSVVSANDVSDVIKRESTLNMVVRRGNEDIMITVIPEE

[21] = molecular target: T8, ARHGEF11, O15085
T8 sequence (O15085 42-136, limits assumed, looked up): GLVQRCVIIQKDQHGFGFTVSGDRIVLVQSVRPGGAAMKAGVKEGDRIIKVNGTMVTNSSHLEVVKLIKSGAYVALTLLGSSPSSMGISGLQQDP

[22] = molecular target: NHERF2_2, Q15599
NHERF2_2, Q15599, sequence (Q15599 142-238): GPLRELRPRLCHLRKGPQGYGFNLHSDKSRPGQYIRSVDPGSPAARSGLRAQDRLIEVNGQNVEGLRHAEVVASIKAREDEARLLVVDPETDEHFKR

[23] = molecular target: T9, RADIL, Q96JH8
T9 sequence (Q96JH8 971-1071, limits assumed, looked up): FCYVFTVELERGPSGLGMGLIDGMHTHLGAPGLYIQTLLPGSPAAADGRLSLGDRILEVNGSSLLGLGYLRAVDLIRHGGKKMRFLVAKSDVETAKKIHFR

[24] = molecular target: PARD3_3, Q8TEW0
PARD3_3, Q8TEW0, sequence (Q8TEW0 582-685): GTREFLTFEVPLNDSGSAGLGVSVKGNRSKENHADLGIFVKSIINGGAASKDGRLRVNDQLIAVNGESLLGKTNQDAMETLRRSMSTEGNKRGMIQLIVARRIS

[25] = molecular target: LIMK2, P53671
LIMK2, P53671, sequence (P53671 143-248): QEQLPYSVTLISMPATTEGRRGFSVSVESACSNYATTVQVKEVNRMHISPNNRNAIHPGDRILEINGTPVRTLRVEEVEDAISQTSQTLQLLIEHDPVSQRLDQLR

[26] = molecular target: T10, ARHGAP21, Q5T5U3
T10 sequence (Q5T5U3 45-169, limits assumed, looked up): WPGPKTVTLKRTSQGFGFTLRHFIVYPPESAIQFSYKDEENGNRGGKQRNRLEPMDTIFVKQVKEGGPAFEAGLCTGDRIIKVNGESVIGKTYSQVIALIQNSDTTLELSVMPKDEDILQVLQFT

[27] = molecular target: PDZRN4_1, Q6ZMN7
PDZRN4_1, Q6ZMN7, sequence (Q6ZMN7 213-318): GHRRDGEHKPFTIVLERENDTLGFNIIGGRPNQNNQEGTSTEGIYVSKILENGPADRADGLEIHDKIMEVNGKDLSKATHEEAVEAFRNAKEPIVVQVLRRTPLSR

[28] = plain residues with an end cap or a label only (N-terminal biotin on a linker: ado-ado, ttds)
[29] = plain residues with an end cap or a label only (N-terminal biotin on a linker: ttds)

pKd [1, 28]: 4.49
pKd [2, 28]: 5.19
pKd [3, 28]: below the threshold
pKd [4, 28]: below the threshold
pKd [5, 28]: 4.89
pKd [6, 28]: below the threshold
pKd [7, 28]: 4.32
pKd [8, 28]: below the threshold
pKd [9, 28]: below the threshold
pKd [10, 28]: 5.23
pKd [11, 28]: 5
pKd [12, 28]: 4.67
pKd [13, 28]: 4.37
pKd [14, 28]: below the threshold
pKd [15, 28]: 3.54
pKd [16, 28]: below the threshold
pKd [17, 28]: below the threshold
pKd [18, 28]: below the threshold
pKd [19, 28]: 4.53
pKd [20, 28]: below the threshold
pKd [21, 28]: 3.59
pKd [22, 28]: 3.59
pKd [23, 28]: below the threshold
pKd [24, 28]: below the threshold
pKd [25, 28]: below the threshold
pKd [26, 28]: below the threshold
pKd [27, 28]: below the threshold
Binder: SNAKAVETDV [KCNA4, P22459]

pKd [1, 29]: 5.24
pKd [2, 29]: 4.22
pKd [3, 29]: below the threshold
pKd [4, 29]: 3.73
pKd [5, 29]: 5.41
pKd [6, 29]: below the threshold
pKd [7, 29]: 5.45
pKd [8, 29]: 4.27
pKd [9, 29]: below the threshold
pKd [10, 29]: 4.28
pKd [11, 29]: 3.88
pKd [12, 29]: 4.29
pKd [13, 29]: 5.45
pKd [14, 29]: below the threshold
pKd [15, 29]: below the threshold
pKd [16, 29]: 5.76
pKd [17, 29]: 4.29
pKd [18, 29]: below the threshold
pKd [19, 29]: 5.4
pKd [20, 29]: 4.25
pKd [21, 29]: 5.24
pKd [22, 29]: 5.41
pKd [23, 29]: 3.78
pKd [24, 29]: 4.44
pKd [25, 29]: below the threshold
pKd [26, 29]: 4.55
pKd [27, 29]: 5.58
Binder: SSIDLWETAL [SLC15A5, A6NIM6]
